Experiment [1] addresses human FcγRIA (CD64) co-expressed with the common γ chain on CV-1 cells (human) (UniProt P12314). Description: inhibition of rosette formation.
In experiment [2] the target is human FcγRIIA (CD32), H131 allotype, on CV-1 cells (human) (UniProt P12318). Description: inhibition of rosette formation.
Experiment [3] has the same target. Kind of experiment: inhibition of rosette formation. This is another data set of the same source.
Experiment [4] has as its target The FcγRIA and FcγRIIA transfectants. Kind of experiment: rosette formation.
In experiment [5] the target is human FcγRIA (CD64) co-expressed with the common γ chain on CV-1 cells (human) (UniProt P12314). Kind of experiment: inhibition of rosette formation. This is another data set of the same source.
The target in experiment [6] is human FcγRIIA (CD32), R131 allotype, on CV-1 cells (human). Kind of experiment: inhibition of rosette formation.

Where two headings read alike, the source gives them in different places.

As to “human IgG2 myeloma protein, heat-aggregated (antibody)”, the percent inhibition of rosette formation in experiment [1] is 20%; in experiment [2] it was 65%; in experiment [3], 60%.

The substance “rabbit IgG on opsonized sheep red blood cells (SRBC) (antibody)” gave a percent rosette formation in experiment [4] of 82 to 97%.

Consider “human IgG1 myeloma protein, heat-aggregated (antibody)”, for which the percent inhibition of rosette formation in experiment [5] and in experiment [6] was more than 90% in each case.

For the substance “human IgG3 myeloma protein, heat-aggregated (antibody)”, the percent inhibition of rosette formation in experiment [5] and in experiment [6] was more than 90% each time.
